Laboratory results: publication PMC8318291, “CryoEM structure of the Nipah virus nucleocapsid assembly” (PLoS Pathogens, 2021)
Values joined by “and” are separate entries in the source; they are usually repeats but may differ in a detail not shown here. Identical values can stand only once.

Biological target: the molecule itself
Assay: cryo-EM structure

B1: Nipah virus (NiV) nucleocapsid protein (natural protein)
chain: MSDIFEEAASFRSYQSKLGRDGRASAATATLTTKIRIFVPATNSPELRWELTLFALDVIRSPSAAESMKVGAAFTLISMYSERPGALIRSLLNDPDIEAVIIDVGSMVNGIPVMERRGDKAQEEMEGLMRILKTARDSSKGKTPFVDSRAYGLRITDMSTLVSAVITIEAQIWILIAKAVTAPDTAEESETRRWAKYVQQKRVNPFFALTQQWLTEMRNLLSQSLSVRKFMVEILIEVKKGGSAKGRAVEIISDIGNYVEETGMAGFFATIRFGLETRYPALALNEFQSDLNTIKSLMLLYREIGPRAPYMVLLEESIQTKFAPGGYPLLWSFAMGVATTIDRSMGALNINRGYLEPMYFRLGQKSARHHAGGIDQNMANRLGLSSDQVAELAAAVQETSAGRQESNVQAREAKFAAGGVLIGGSDQDIDEGEEPIEQSGRQSVTFKREMSISSLANSVPSSSVSTSGGTRLTNSLLNLRSRLAAKAAKEAASSNATDDPAISNRTQGESEKKNNQDLKPAQNDLDFVRADV
notes: also called N protein; nucleoprotein (N)
- stoichiometry N: 13 subunits and 14 subunits
